Where two headings read alike, the source gives them in different places. Where no end group is shown, it is not given here.
Columns and labels:
[1] = biological target: Paxillin LD4 peptide LD4 (Homo sapiens) (UniProt P49023); details: cited from earlier work
[2] = biological target: paxillin LD4 LD4 motif peptide (Homo sapiens) (UniProt P49023); details: cited from earlier work
[3] = biological target: Paxillin LD4 peptide LD4 (Homo sapiens) (UniProt P49023); details: cited from earlier work; remark: listed apart in the source
[4] = biological target: FAT domain of human Pyk2 (residues 871-1005) (Homo sapiens, UniProt Q14289); assay: ITC of leupaxin LD peptides and leupaxin^1-105 binding to Pyk2-FAT
Pyk2-FAT-LD1 = Pyk2-FAT-LD1 (Homo sapiens, UniProt Q14289); details: X-ray, 2.0 Å (4XEV); 0.5 mM protein, 2 mM leupaxin-LD4 peptide
Pyk2-FAT = assay: NMR titration / chemical shift perturbation of 15N-labeled Pyk2-FAT; type: binding, human
Pyk2-FAT domain = details: ref [36]; cited from earlier work
[5] = biological target: paxillin LD4 LD4 motif peptide (Homo sapiens) (UniProt P49023); details: cited from earlier work; remark: listed apart in the source
[6] = biological target: T1, FAT domain of human Pyk2 (residues 871-1005) (human, UniProt Q14289 871-1005); assay: ITC
[7] = biological target: T1, FAT domain of human Pyk2 (residues …); assay: SEC-MALS
[8] = biological target: T1, FAT domain of human Pyk2 (residues …); assay: ITC; remark: listed apart in the source
[9] = ITC, 20 mM MES, pH 6.2, 15°C, two-site sequential model, first site, duplicate
[10] = ITC, 20 mM MES, pH 6.2, 15°C, two-site sequential model, second site, duplicate

Chain of Paxillin LD4 peptide LD4 (Homo sapiens) (P49023 263-282): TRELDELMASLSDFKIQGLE

For “Pyk2 FAT H1/H4 site (from UniProt Q14289)”, the Kd [1] is given as 46.3 µM.

For “Pyk2 FAT (871-1005), H1/H4 site (from UniProt Q14289)”, the Kd [2] is listed as 46.3 µM.

In the case of “Pyk2 FAT H2/H3 site (from UniProt Q14289)”, the Kd [3] is listed as 8 µM.

For KTSAAAQLDELMAHLTEMQ [leupaxin-LD4], the “Stoichiometry of binding (peptide to Pyk2-FAT)” value ([4]; ITC, 20 mM MES, pH 6.2, 15°C) was 2 to 1 stoichiometry, the “ΔG, first site” value [4, 9] was -31.8 ± 1.3 kJ/mol and the “ΔH, first site” value [4, 9] was -12.6 ± 0.84 kJ/mol. For the same molecule, the “−T.ΔS, first site” value [4, 9] was -19.2 ± 2.5 kJ/mol, the “ΔG, second site” value [4, 10] was -25.1 ± 0.42 kJ/mol and the “ΔH, second site” value [4, 10] was 2.1 ± 1.3 kJ/mol. The “−T.ΔS, second site” value [4, 10] was -27.2 ± 1.7 kJ/mol, the “Higher affinity at the preferred Pyk2-FAT binding site” value ([4]; ratio of the two site KDs (LD1 prefers H1/H4, LD4 prefers H2/H3)) was ~19 fold and the “Binding site in crystal structure with Pyk2-FAT-LD1” value (Pyk2-FAT-LD1) was “binds at the H2/H3 site”. For the same molecule, the “CSP differences between leupaxin-LD1 and leupaxin-LD4” value (Pyk2-FAT; 4 equivalents peptide, 15N-labeled Pyk2-FAT, 20 mM MES, pH 6.2, 305K) was “residues Arg 918 and Ala 951 from H2/H3 show a high magnitude of CSP”, the “NMR site preference on Pyk2-FAT” value (Pyk2-FAT; NMR titrations, LD1 for H1/H4, LD4 for H2/H3, respectively) was “strong preference for H1/H4 and H2/H3 sites of Pyk2-FAT, respectively” and the “Binding behaviour with Pyk2-FAT (in words)” value (Pyk2-FAT domain) was “compete equally for H2/H3”.

For “Pyk2 FAT (871-1005), H2/H3 site (from UniProt Q14289)”, the Kd [5] is given as 8 µM.

B1: leupaxin^1-105 (human leupaxin; residues 1-105) (domain or fragment, UniProt O60711 1-105, looked up)
chain: MEELDALLEELERSTLQDSDEYSNPAPLPLDQHSRKETNLDETSEILSIQDNTSPLPAQLVYTTNIQELNVYSEAQEPKESPPPSKTSAAAQLDELMAHLTEMQA
For B1, the Kd [6] was 0.6 ± 0.2 µM, the dH [6] was -10.5 ± 2.09 kJ/mol and the “stoichiometry N” value [6] was 1.

B2: leupaxin^1-151 (human leupaxin; residues 1-151) (domain or fragment, UniProt O60711 1-151, looked up)
chain: MEELDALLEELERSTLQDSDEYSNPAPLPLDQHSRKETNLDETSEILSIQDNTSPLPAQLVYTTNIQELNVYSEAQEPKESPPPSKTSAAAQLDELMAHLTEMQAKVAVRADAGKKHLPDKQDHKASLDSMLGGLEQELQDLGIATVPKGH
With B2 the “stoichiometry N” value [7] was 1.

MEELDALLEELERSTLQDSD (peptide, UniProt O60711 1-20, looked up) [leupaxin-LD1 peptide (human leupaxin; residues 1-20)] gave a dH first site [8] of -8.37 ± 0.837 kJ/mol and a dH second site [8] of 6.69 ± 1.26 kJ/mol.

KTSAAAQLDELMAHLTEMQ (peptide, UniProt O60711 86-104, looked up) [leupaxin-LD4 peptide (human leupaxin; residues 86-104)] showed a KD first site [8] of 2.2 ± 1 µM, a KD second site [8] of 33 ± 7.2 µM and a dH first site [8] of -12.6 ± 0.837 kJ/mol. It also gave a dH second site [8] of 2.09 ± 1.26 kJ/mol.

From PMC4843776 (Biochemistry, 2016)
